Data: patent EP4785962A1, “ANTIBODY-DRUG CONJUGATE TARGETING TROP2, AND PREPARATION METHOD AND USE THEREFOR” (priority 2023, dated 2025)

How the values were obtained:
[1] = test system: human pancreatic cancer cell line BxPC-3; experiment: In vitro cytotoxicity test, BxPC3 cells, 6 days; type: cell-based; details: BxPC3, 6 days of culture
Method: 10% FBS (SH30406.05, HYCLONE) was added to RPMI 1640 (22400-071, Gibco), and the mixture was mixed well to prepare a BxPC3 cell (ATCC) growth medium. BxPC3 or FaDu cells were adjusted to a concentration of 50000 cells/mL with a growth medium, seeded into a 96-well white-bottom plate (167008, NUNC) at 50 µL per well (2500 cells/well), and incubated overnight in an incubator at 37 °C. The antibody was diluted with growth medium and serially diluted 5-fold from 200 nM (2×) to obtain 9 gradients, with the final concentration being […]. The diluted antibody-drug conjugate or control was added at 50 µL/well, and the total volume was 100 µL. […] The cell pellet was fully lysed by shaking on a plate shaker for 5 min, and the luminescence signal was stabilized by standing at room temperature for 10 min. The culture plate was tested on a microplate reader (spectra MAX i3x, Molecular Divices), the […] were taken, and the cell viability was calculated. […]
The cell proliferation inhibition rate after 6 days of culture was calculated using the following formula.
Cell proliferation inhibition rate (%) = […], where a: the average value of experimental sample-added wells after 6 days of culture; b: the average value of control medium-added wells after 6 days of culture. The data were fitted by GraphPad Prism and the IC50 of the drug was calculated (Table 4).

[2] = ADC in vivo stability assay in mice (serum ELISA for ADC and total antibody); parameters: species or system Balb/c mice; details: 10 mg/kg via the tail vein
Method: • 1. The antibody-drug conjugate was injected into Balb/c mice (Vital River) via the tail vein at a dose of 10 mg/kg, and blood was collected at 0.083 h, 0.5 h, 2 h, 6 h, 24 h, 48 h, 96 h, 168 h, 336 h, and 504 h after administration (FIG. 10A). The blood samples were left to stand at room temperature and centrifuged to collect serum, so as to test the stability of the drug in the mice. • 2. Antibody detection: TROP2 protein (ACRO, cat: TR2-H5223, lot: 2573-2316F1-1B9) was coated and incubated overnight at 4 °C (FIG. 10A). The coating protein solution was removed, and 300 µL of wash buffer (0.05% Tween 20) was added to each well for repeated washing 3 times. 200 µL of blocking solution (5% skim milk powder) was added to each well, and the plate was blocked at room temperature for 2 h. The blocking solution was discarded, and the plate was washed 3 times with 300 µL of wash buffer per well. The diluted standards, quality control samples, and mouse serum samples to be tested were added to the well plate and incubated at room temperature for 2 h. The sample solution was discarded, and 300 µL of wash buffer was added to each well for 3 times of repeated washing. Anti-hFc-HRP (BETHYL, cat:A80-104P, lot: 97) was diluted 20000-fold and added at 100 µL/well, and the plate was incubated at room temperature for 1 h. The liquid was removed, and 300 µL of wash buffer was added to each well for 6 times of repeated washing. 100 µL of TMB substrate (Solarbio, cat:PR1200, lot: 20230418) was added to each well, and the color development was performed at room temperature for 5-10 min in the dark. 50 µL of ELISA stop solution (Beijing Solarbio C1058 20190620) was added to each well, medium-speed shaking for 10 s, within 30 min, the OD values at 450 nm and 620 nm were read on a microplate reader (USA, Thermo Multiskan FC AS-A1-008). • 3. Antibody-drug conjugate ADC detection: an anti-payload antibody 18E7C9 (innovent, lot: 20220424) was coated and incubated at 4 °C overnight (FIG. 10A). The coating protein solution was discarded, and 300 µL of wash buffer (0.05% Tween 20) was added to each well for 3 repeated washes. 200 µL of blocking solution (5% skim milk powder) was added to each well, and the plate was blocked at room temperature for 2 h. The blocking solution was discarded, and the plate was washed 3 times with 300 µL of wash buffer per well. The diluted standards, quality control samples, and mouse serum samples to be tested were added to the well plate and incubated at room temperature for 2 h. The sample solution was discarded, and 300 µL of wash buffer was added to each well for 3 times of repeated washing. Biotinylated TROP2 protein (ACRO, cat: TR2-H82E5, lot:BV3055-91PF1-ZC) was added to the microplate and incubated at room temperature for 2 h. The liquid was removed, and 300 µL of wash buffer was added to each well for 3 times of repeated washing. SA-HRP (Biolegend, cat:405210, lot: B339457) was diluted 20,000-fold and added at 100 µL/well, and the plate was incubated at room temperature for 1 h. The liquid was removed, and 300 µL of wash buffer was added to each well for 6 times of repeated washing. 100 µL of TMB substrate (Solarbio, cat:PR1200, lot: 20230418) was added to each well, and the color development was performed at room temperature for 5-10 min in the dark. 50 µL of ELISA stop solution (Beijing Solarbio C1058 20190620) was added to each well, medium-speed shaking for 10 s, within 30 min, the OD values at 450 nm and 620 nm were read on a microplate reader (USA, Thermo Multiskan FC AS-A1-008).

B1: hTINA1-DXd: control ADC: antibody hTINA1 conjugated with Linker-DXd, average DAR 4.3; TROP2-ADC from Daiichi Sankyo (conjugate, chains of the INN, looked up)
VH: QVQLVQSGAEVKKPGASVKVSCKASGYTFTTAGMQWVRQAPGQGLEWMGWINTHSGVPKYAEDFKGRVTISADTSTSTAYLQLSSLKSEDTAVYYCARSGFGSSYWYFDVWGQGTLVTVSS
VL: DIQMTQSPSSLSASVGDRVTITCKASQDVSTAVAWYQQKPGKAPKLLIYSASYRYTGVPSRFSGSGSGTDFTLTISSLQPEDFAVYYCQQHYITPLTFGQGTKLEIK
modifications: deruxtecan (Linker-DXd), DAR 4.3
notes: control ADC: antibody hTINA1 conjugated with Linker-DXd, average DAR 4.3; TROP2-ADC from Daiichi Sankyo
Work on B1 yielded an IC50 [1] of 0.55 nM, an AUC ([2]; Analysis Type ADC) of 12053.60 µg·h/mL and a Cl_obs ([2]; Analysis Type ADC) of 19.9 mL/day/kg. For the same molecule, the T-half ([2]; Analysis Type ADC) was 154.59 h, the AUC ([2]; Analysis Type Total-Ab) was 35805.22 µg·h/mL and the Cl_obs ([2]; Analysis Type Total-Ab) was 6.72 mL/day/kg. For the same molecule, the T-half ([2]; Analysis Type Total-Ab) was 374.37 h.
